Measured values published in paper PMC5659210, “Extending the biocatalytic scope of regiocomplementary flavin-dependent halogenase enzymes” (Chemical Science, 2015).

These substances were tested on Nc1ccccc1C(=O)O (assay: Michaelis-Menten chlorination assay, HPLC, Fre-coupled). Settings: Fre in excess, 30 °C.
Type: biochemical, Pseudomonas fluorescens
Source text: Michaelis-Menten chlorination assay, HPLC, Fre-coupled on PrnA

Question: What does the source list for PrnA (Pseudomonas fluorescens; E450K)?
Answer: Km: 384 ± 93 µM; kcat: 0.0155 ± 0.000833 s⁻¹; kcat/Km: 40 ± 10 M⁻¹ s⁻¹

Question: Which results are given for “PrnA (Pseudomonas fluorescens; E450K/F454K)”?
Answer: Km: 205 ± 16 µM; kcat: 0.0303 ± 0.000667 s⁻¹; kcat/Km: 148 ± 11.7 M⁻¹ s⁻¹

Question: “PrnA (Pseudomonas fluorescens; E450K/F454R)” was tested. Which Km did it give?
Answer: The Km was 378 ± 59 µM.

Question: And the kcat?
Answer: Its kcat is 0.0212 ± 0.00117 s⁻¹.

Question: What about the kcat/Km of the same substance?
Answer: The kcat/Km was 56.7 ± 10 M⁻¹ s⁻¹.

Question: With PrnA (Pseudomonas fluorescens; F454K) as the substance, how does the Km read?
Answer: The Km was 3628 ± 1108 µM.

Question: And the kcat?
Answer: The kcat was 0.061 ± 0.0112 s⁻¹.

Question: What about the kcat/Km of the same substance?
Answer: The kcat/Km was 16.7 ± 6.67 M⁻¹ s⁻¹.
